B1: Rcf1 (respiratory supercomplex factor 1) (natural protein)
chain: MSRMPSSFDVTERDLDDMTFGERIIYHCKKQPLVPIGCLLTTGAVILAAQNVRLGNKWKAQYYFRWRVGLQAATLVALVAGSFIYGTSGKELKAKEEQLKEKAKMREKLWIQELERREEETEARRKRAELARMKTLENEEEIKNLEKELSDLENKLGKK
B2: Rcf2 (respiratory supercomplex factor 2) (natural protein)
chain: MKILTQDEIEAHRSHTLKGGIEGALAGFAISAIIFKVLPRRYPKFKPSTLTWSIKTALWITPPTVLTAICAEEASNNFDATMYGSGSSSEDALDEHRRWKSLSTKDKFVEGLSNNKYKIITGAWAASLYGSWVIVNKDPIMTKAQKIVQARMYAQFITVGLLLASVGLSMYENKLHPNKQKVNEMRRWENALRVAEEEERLEKEGRRTGYVSNEERINSKIFKS

Legend:
[1] = target: bc1 complex (Complex III), dimer (S. cerevisiae (endogenous in BY4741 mitochondria)) (UniProt P07256); assay: native gel or EMSA; BN-PAGE (3-12% NativePage Bis-Tris) of mitochondria solubilised in 2% digitonin, then Western blot or second-dimension SDS-PAGE and immuno decoration; comigration; cells grown in YPGal, YPD or YPG; wild type, rcf1Δ, rcf2Δ and truncation strains
[2] = target: respiratory supercomplexes (III2IV and III2IV2) of bc1 complex and cytochrome c oxidase (S. cerevisiae (endogenous in BY4741 mitochondria)) (UniProt P07256); assay: as above

Molecule | fold change of the share residing in supercomplexes, YPG against YPD [1] | fold change of the share residing in supercomplexes, YPG against YPD [2]
cytochrome c oxidase (Complex IV), monomeric (from UniProt P00401 1-534; P00410 16-251; P00420 1-269; P04037 26-155; P00424 21-153; P00427 41-148; Q01519 1-83; P32799 10-129) | 1.4 fold | –
B1 | – | 2.5 fold
B2 | – | 3.7 fold
